Experimental data as given in the supplement of paper PMC10567573.
± gives the standard deviation.

Experiment: protein stability index of a GFP-peptide fusion (GPS, HEK-293T) (PSI 1-6); higher = more stable
[1] = treatment: DMSO, c terminus: a fixed tail appended
[2] = treatment: MLN4924 1 uM, 8 h, c terminus: a fixed tail appended
[3] = treatment: DMSO, c terminus: native
[4] = treatment: MLN4924 1 uM, 8 h, c terminus: native
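Also: 24-mer peptide tiles fused after GFP, lentivirally expressed, FACS-sorted into six equal bins by GFP/DsRed ratio, decoded by Illumina sequencing, PSI is the read-weighted mean bin number.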

Sequence | protein stability index [1] | protein stability index [2] | protein stability index [3] | protein stability index [4]
RIPYTKSQTEAHYSCQSKEILRYM [P2RY14] | 2.42 ± 0.32 | 2.45 ± 0.49 | – | –
RIRIDDEPANLDILDTAGQAEFTA [RIT1] | 4.62 ± 0.23 | 4.77 ± 0.11 | – | –
RKGKDKENGSVSSSETPPPPPPPN [EIF5] | 5.15 ± 0.2 | 5.22 ± 0.28 | – | –
RKHSDLEEEEERWEWSPAGLQSYQ [SERTAD3] | 4.35 ± 0.26 | 4.38 ± 0.17 | – | –
RKVKSTITLDGGVLVHVQKWDGKS [FABP4] | 3 ± 0.23 | 3.15 ± 0.52 | – | –
RLPNRQLISCSEDGSVRIWELREK [WDR41] | 3.23 ± 0.2 | 3.31 ± 0.42 | – | –
RMTGGRPPLPPPDDPATLGPHLGL [DYRK1B] | 4.2 ± 0.2 | 4.26 ± 0.18 | – | –
RPPAYSPAQRSHTYTHGLGLHRRP | 3.63 ± 0.28 | 3.75 ± 0.16 | – | –
RPPGPAGTEQSRGLGHGSTSRGGP [CPOX] | 4.794 ± 0.018 | 4.92 ± 0.33 | – | –
RPVLLSKIEGHQDAVTAALLIPKE [WDFY1] | 3.87 ± 0.28 | 3.94 ± 0.34 | – | –
RQKDLKFLSEEEYWKLQIFFTNVI [CCNC] | 2.57 ± 0.25 | 2.47 ± 0.83 | – | –
RQTKKMFCDMDKSLLCLLCSNSQE [TRIM43] | 2.44 ± 0.15 | 2.86 ± 0.21 | – | –
RQVNIRTANCTTANQNCVNKSKLL [KCNA1] | 3.51 ± 0.12 | 3.48 ± 0.28 | – | –
RREQAAAAPFPSPAPASPAISVVG [TFE3] | 4.22 ± 0.35 | 4.24 ± 0.18 | – | –
RRKCGQYWPLEKDSRIRFGFLTVT [PTPN9] | 2.3 ± 0.69 | 2.16 ± 0.47 | – | –
RRLIKRFSFKSKPKANGNPSPQL [C2CD2L] | – | – | 4.24 ± 0.3 | 4.38 ± 0.16
RRLPLAFRDATSAPLRKLSVDLIK [DYRK1B] | 2.46 ± 0.39 | 2.45 ± 0.26 | – | –
RRNEETPEEGQQPWLCGESFTLAD [GDAP1] | 5.02 ± 0.13 | 4.99 ± 0.3 | – | –
RRYVASVSLHDRIYVIGGYDGRSR [KLHL12] | 2.53 ± 0.31 | 2.49 ± 0.5 | – | –
RSIQGHNDYICPATNQCTIDKNRR [ESR2] | 3.84 ± 0.43 | 4.21 ± 0.33 | – | –
RSLNVFVKDDDRLTFHRHPVAQST [SPSB4] | 3.51 ± 0.3 | 3.62 ± 0.29 | – | –
RTPRLMPDKESMYYPRVQHYRELL [GDAP1] | 2.52 ± 0.17 | 2.61 ± 0.27 | – | –
RTRTATMLCAASGNPDPEITWFKD [PTPRD] | 3.64 ± 0.15 | 3.72 ± 0.35 | – | –

Sequence | protein stability index [1] | protein stability index [2] | protein stability index [3] | protein stability index [4]
RVEFPRSGRGTGRGGGGGGGGGAP [SRSF1] | 4.7 ± 0.39 | 4.8 ± 0.28 | – | –
RVERRFHFSQSLTVIHDFLFSLKE [FAF2] | 2.17 ± 0.15 | 2.44 ± 0.23 | – | –
RWALLSCRGKKPSRIYGQAMAIIN [KLHDC10] | 2.32 ± 0.55 | 2.18 ± 0.32 | – | –
RWSLISLSNKNGKNVELKFVDSIR [TENT5C] | 2.39 ± 0.26 | 2.36 ± 0.44 | – | –
RYFYLLENIAWVKSYNICFELEDS [PDS5B] | 2.75 ± 0.2 | 2.05 ± 0.61 | – | –
RYLEAEFKKGNRYIRCQKEVGKSF [SMG5] | 2.57 ± 0.71 | 2.29 ± 0.21 | – | –
RYTGTTPSPPPGSHYTSPSENMWN [CARM1] | 3.48 ± 0.23 | 3.57 ± 0.23 | – | –
SAAGHLKVVQSLLNHGASVNNTTL [FEM1C] | 3.06 ± 0.21 | 3.13 ± 0.38 | – | –
SAGEQKTERMDKVGDALEEVLSKA [GADD45A] | 5.58 ± 0.18 | 5.41 ± 0.26 | – | –
SAKNTSHPGSGTKVQFNLQFTKPN [SASS6] | 3.35 ± 0.12 | 3.61 ± 0.14 | – | –
SALATQYMHCVNHAKQSMLEKGG [CHCHD3] | – | – | 2.81 ± 0.55 | 3.02 ± 0.34
SASHRPCVNGDVDKPSEPASEEGS [SMG5] | 5.49 ± 0.17 | 5.641 ± 0.046 | – | –
SDAAFGGILERYWLSSRAAAIKVN [MYORG] | 2.19 ± 0.2 | 2.17 ± 0.21 | – | –
SDINSLRRILDELTLCRSDLEAQM [KRT33B] | 2.85 ± 0.36 | 2.92 ± 0.38 | – | –
SDPSTIEASNFQMDRKTRFIIHGF [PNLIPRP1] | 2.42 ± 0.067 | 2.37 ± 0.26 | – | –
SDTRVGAPATGSGTPGPFTKEGGM [CHIT1] | 4.76 ± 0.26 | 4.98 ± 0.14 | – | –
SDTTHLVTLGGVLRQQLVVSKELR [KLHL13] | 3.04 ± 0.069 | 3.1 ± 0.3 | – | –
SDVLTISGTIMKIGIEAKNLASYD [MCOLN1] | 2.39 ± 0.24 | 2.5 ± 0.33 | – | –
SDVVGRRSSLLACILLSALGYLLL [MFSD9] | 3.22 ± 0.32 | 3.19 ± 0.26 | – | –
SEEKGHPQEESEESNVSMASLGEK [CHGB] | 5.48 ± 0.21 | 5.61 ± 0.19 | – | –
SEGLVGALMHVMQKRSRAIHSSDE [WAS] | 3.67 ± 0.3 | 3.79 ± 0.15 | – | –
SEVKEELAGQKDELQLSDLLKQGY [PKD2L1] | 4.81 ± 0.28 | 4.92 ± 0.24 | – | –
SFGACLREETPRMPSWASARDRQP [ELOA2] | 3.4 ± 0.34 | 3.13 ± 0.32 | – | –

Sequence | protein stability index [1] | protein stability index [2] | protein stability index [3] | protein stability index [4]
SFLWQRGRKFLQKHLNASNPTEPA [TOR1AIP2] | 2.86 ± 0.13 | 3.05 ± 0.17 | – | –
SFVKKNVLVTGGFFGGFLLGMAS [FUNDC2] | – | – | 3.64 ± 0.15 | 2.96 ± 0.41
SGIGREGAKDSYDFFTEIKTITVK [ALDH8A1] | 3.27 ± 0.37 | 3.28 ± 0.4 | – | –
SGLRMVPEHRAFGSPFGLEEPQWV [ZFYVE21] | 2.8 ± 0.14 | 2.93 ± 0.26 | – | –
SGPEAARAGGWVSGEEFYMLTRRV [PKD2L1] | 2.69 ± 0.29 | 2.96 ± 0.49 | – | –
SINTHLGKEQSRRDDLEALGHMFM [CSNK1G3] | 2.81 ± 0.28 | 3.03 ± 0.49 | – | –
SKKLRAILPKQSRKSMLDAGPDSW [LCOR] | 2.71 ± 0.06 | 3.03 ± 0.44 | – | –
SKPGVYTSYKPYLNRDEEIIKQLQ [DENND6A] | – | 3.35 ± 0.42 | – | –
SKSADNQEYFERHRWPPVWYLKEE [RHOBTB1] | 3.4 ± 0.29 | 3.43 ± 0.34 | – | –
SKSTQFEYAWCLVRSKYNDDIRKG [FIS1] | 2.26 ± 0.34 | 2.55 ± 0.56 | – | –
SLEDLIFESLPENASHKLEVRLVP [ATE1] | 2.79 ± 0.3 | 2.98 ± 0.3 | – | –
SLKAICTEIANCSLKVKFFDLERE [PLD5] | 2.12 ± 0.17 | 2.26 ± 0.84 | – | –
SLKEDLTQHKFICEQCGKCKCGEC [SPRY1] | 5.32 ± 0.36 | 5.22 ± 0.14 | – | –
SLVADNCVTLVWRMPDEDSKIDHY [FSD1] | 2.62 ± 0.15 | 2.94 ± 0.34 | – | –
SLVMGSQTESALSKKLRAILPKQS [LCOR] | 2.71 ± 0.21 | 2.95 ± 0.37 | – | –
SLYILRGSARYDFSHEILRDEESF [ALKBH7] | 2.63 ± 0.21 | 2.2 ± 0.6 | – | –
SLYLLLVSCPKSEVRAKFKFSLLN [SPOPL] | 2.56 ± 1.2 | 2.49 ± 0.74 | – | –
SMCEHHLVPFVGKVHIGYLPNKQV [GCH1] | 2.16 ± 0.38 | 2.29 ± 0.39 | – | –
SMLVAGNDRVQTIITQLEDSRRVT [TRIM63] | 3.81 ± 0.077 | 3.72 ± 0.12 | – | –
SMTTPRCYVGATVLRGRLYAIAGY [KLHL12] | 2.14 ± 0.36 | 2.51 ± 0.58 | – | –
SNATATPSVRKKAGSFSRRLIKRF [C2CD2L] | 3.47 ± 0.18 | 3.61 ± 0.18 | – | –
SNLTSNLASLVSQGMIQLALSGAS [RETREG3] | 3.05 ± 0.12 | 3.15 ± 0.24 | – | –
SNNNGRIKQLRSGGTPIRGALQIE [PTPRD] | 3.76 ± 0.33 | 3.85 ± 0.36 | – | –

Sequence | protein stability index [1] | protein stability index [2] | protein stability index [3] | protein stability index [4]
SNRHGHTCLMISCYKGHKEIAQYL [FEM1C] | 2.68 ± 0.55 | 2.43 ± 0.39 | – | –
SPAAPYFLGSSFSPVRCGGPGDAS [WEE1] | 3.06 ± 0.3 | 3.17 ± 0.35 | – | –
SPHEMLQAVVLCSKKTFQITKQGD [USP39] | 3.34 ± 0.39 | 3.4 ± 0.28 | – | –
SPISSISPGLHSFTDHQRLMKRRK [KCNK9] | 4.7 ± 0.28 | 4.8 ± 0.16 | – | –
SPREGEELKPEDKDPRDPEESKEP [GNAS] | 5.78 ± 0.14 | 5.71 ± 0.26 | – | –
SPSSDLDTDAEGDDFELLDQSELS [RETREG3] | 5.56 ± 0.13 | 5.38 ± 0.12 | – | –
SQAQETTIIASNAEEAEILHSACG [TOR1AIP2] | 5.26 ± 0.29 | 5.21 ± 0.27 | – | –
SQNIAAETRAEDPPWFEGLESRFQ [DFFB] | 4.46 ± 0.13 | 4.49 ± 0.079 | – | –
SRLLLLEQELKTVTYSLLKRLKER [SMAD6] | 2.77 ± 0.34 | 2.55 ± 0.49 | – | –
SRLRFLNLGRMIDWVPVESLLRPL [ZER1] | 2.16 ± 0.13 | 2.24 ± 0.25 | – | –
SRLVAGEYLSFFDFSGLTLDGALR [PSD2] | 1.93 ± 0.094 | 2.3 ± 0.29 | – | –
SRSAAQDLDRMGVMTLPSDLRKHR [PPFIA4] | 4.54 ± 0.48 | 5.22 ± 0.1 | – | –
SRSTSFRGGMGSGGLATGIAGGLA [KRT18] | 3.3 ± 0.066 | 3.33 ± 0.37 | – | –
SRTCIGSSHSRGPLSWAPCGPIAG | 2.76 ± 0.18 | 2.84 ± 0.36 | – | –
SSASEGDEDLRRQMQDDEQKTRLL [PALM] | 5.51 ± 0.15 | 5.49 ± 0.19 | – | –
SSEKKRQSSADGSQPPKKKPKTTN [RBBP5] | 5.24 ± 0.37 | 5.28 ± 0.3 | – | –
SSKAHTSRFISANLPCNKFKNRLV [PTPRD] | 2.58 ± 0.35 | 2.59 ± 0.26 | – | –
SSLDLSYYPTSSSTSFMSSSSSSS [EMD] | 3.99 ± 0.06 | 3.84 ± 0.34 | – | –
SSLEEIVEKQGDTIEYLKRHNALL [TMEM192] | 3.82 ± 0.38 | 3.92 ± 0.16 | – | –
SSLPGHAAKTLPGGAGKGRTPSAF [EHMT1] | 3.98 ± 0.34 | 4.26 ± 0.32 | – | –
